Consider one molecule from paper PMC10767048 (Nature Communications, 2024).

This test has as its target T1, bovine serum albumin (Bos taurus, UniProt P02769).
T1 construct: also called BSA
Put plainly: ELISA. As to conditions: both partners purified. (In an ELISA, binding on a coated surface is turned into a signal by an enzyme label.)

T1 sequence (P02769 25-607): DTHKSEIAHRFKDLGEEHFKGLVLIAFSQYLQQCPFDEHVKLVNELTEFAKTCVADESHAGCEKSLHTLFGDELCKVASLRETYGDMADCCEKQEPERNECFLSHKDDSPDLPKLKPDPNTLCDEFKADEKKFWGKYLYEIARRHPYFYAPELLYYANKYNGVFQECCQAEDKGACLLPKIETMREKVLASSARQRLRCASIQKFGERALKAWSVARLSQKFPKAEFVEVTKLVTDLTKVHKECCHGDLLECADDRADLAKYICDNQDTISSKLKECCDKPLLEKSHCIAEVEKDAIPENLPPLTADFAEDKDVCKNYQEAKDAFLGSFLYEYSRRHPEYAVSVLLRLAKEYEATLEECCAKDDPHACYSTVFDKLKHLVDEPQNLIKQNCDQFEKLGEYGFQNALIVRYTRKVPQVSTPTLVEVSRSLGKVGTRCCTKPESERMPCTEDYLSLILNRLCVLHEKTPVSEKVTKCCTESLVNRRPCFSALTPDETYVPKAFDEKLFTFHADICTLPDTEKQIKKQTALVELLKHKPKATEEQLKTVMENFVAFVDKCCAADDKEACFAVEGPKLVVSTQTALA

B1: nanobody D5 (camel VHH) (VHH)
VHH: AWQLVESGGGSVQPGGSLTLTCQASKSTFSTSGMRWERQAQGKGVEFVADISSDSTRKWYSDSVKGRFTISRSNWWRTVTLQMNDLKPEDTARYYCKDLESHHLRGQGTQVTVSS
notes: source: E. coli HB2151 (pComb3x phagemid), released with polymyxin B, purified (HisTrap)
B1: the binding result was “no binding (tested: 1 μg/ml)”.
